One assay deals with 14-3-3 Epsilon (UniProt P48347). Nature of the assay: far-western of anti-GFP IP, GST-14-3-3 probe. The following applies: reference: wild-type GFP-NPH3; sites S744.
Assay [1] deals with T1, GFP-NPH3 (NON-PHOTOTROPIC HYPOCOTYL 3) (Arabidopsis, UniProt Q9FMF5 1-746, phosphoserine at 744 after blue light irradiation (pS744 antibody), not in darkness; phosphorylated on multiple other sites in darkness (including S213, S223, S233, S237), dephosphorylated after blue …).
T1 construct: NPH3 (NON-PHOTOTROPIC HYPOCOTYL 3), Arabidopsis; S746 is the last residue; The state of the protein differs between dark and blue-light-treated seedlings; the two are kept apart by the assay; also called NPH3::GFP-NPH3; source: etiolated Arabidopsis nph3 seedlings expressing NPH3::GFP-NPH3; total protein extract, anti-GFP immunoprecipitated
T1 sequence (looked up): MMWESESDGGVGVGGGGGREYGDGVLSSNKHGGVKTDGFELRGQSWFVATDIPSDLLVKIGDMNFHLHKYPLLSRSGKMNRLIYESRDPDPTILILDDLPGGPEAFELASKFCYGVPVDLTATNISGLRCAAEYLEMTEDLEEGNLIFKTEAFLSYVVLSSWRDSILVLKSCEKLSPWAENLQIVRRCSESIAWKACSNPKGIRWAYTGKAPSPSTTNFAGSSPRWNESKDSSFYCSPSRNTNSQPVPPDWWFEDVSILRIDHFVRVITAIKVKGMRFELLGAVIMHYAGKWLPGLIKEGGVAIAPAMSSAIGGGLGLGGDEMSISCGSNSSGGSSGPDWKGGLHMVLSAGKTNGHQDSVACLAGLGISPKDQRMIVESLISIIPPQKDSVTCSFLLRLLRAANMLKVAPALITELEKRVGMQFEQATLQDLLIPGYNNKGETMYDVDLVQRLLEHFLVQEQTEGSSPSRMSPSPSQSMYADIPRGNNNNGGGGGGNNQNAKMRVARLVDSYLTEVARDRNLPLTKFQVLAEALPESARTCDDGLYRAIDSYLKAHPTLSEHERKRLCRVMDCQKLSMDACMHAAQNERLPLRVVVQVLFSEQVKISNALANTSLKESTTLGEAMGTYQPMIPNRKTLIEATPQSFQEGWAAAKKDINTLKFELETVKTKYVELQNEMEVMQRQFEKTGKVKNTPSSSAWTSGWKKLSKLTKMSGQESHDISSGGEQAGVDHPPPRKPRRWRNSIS
Nature of the assay: far-Western, overlay or dot blot; GFP-Trap immunoprecipitates from etiolated seedlings irradiated with 20 µmol m^-2 s^-1 blue light for 15 min (L), separated by SDS-PAGE, on PVDF; probed with purified GST-14-3-3 or GST alone at 1 µM in 20 mM HEPES-KOH pH 7.7, 75 mM KCl, 0.1 mM EDTA, 1 mM DTT, 2% milk, 0.04% Tween-20; detected with anti-GST. The following applies: both partners purified.

A further assay concerns the target T2, GFP-NPH3 S746A (Arabidopsis, UniProt Q9FMF5 1-746, S746A, phosphoserine at 744 after blue light irradiation, at a reduced level (pS744 antibody)).
T2 construct: NPH3, Arabidopsis; source: etiolated Arabidopsis nph3 seedlings expressing NPH3::GFP-NPH3 S746A; total protein extract, anti-GFP immunoprecipitated
T2 sequence (looked up): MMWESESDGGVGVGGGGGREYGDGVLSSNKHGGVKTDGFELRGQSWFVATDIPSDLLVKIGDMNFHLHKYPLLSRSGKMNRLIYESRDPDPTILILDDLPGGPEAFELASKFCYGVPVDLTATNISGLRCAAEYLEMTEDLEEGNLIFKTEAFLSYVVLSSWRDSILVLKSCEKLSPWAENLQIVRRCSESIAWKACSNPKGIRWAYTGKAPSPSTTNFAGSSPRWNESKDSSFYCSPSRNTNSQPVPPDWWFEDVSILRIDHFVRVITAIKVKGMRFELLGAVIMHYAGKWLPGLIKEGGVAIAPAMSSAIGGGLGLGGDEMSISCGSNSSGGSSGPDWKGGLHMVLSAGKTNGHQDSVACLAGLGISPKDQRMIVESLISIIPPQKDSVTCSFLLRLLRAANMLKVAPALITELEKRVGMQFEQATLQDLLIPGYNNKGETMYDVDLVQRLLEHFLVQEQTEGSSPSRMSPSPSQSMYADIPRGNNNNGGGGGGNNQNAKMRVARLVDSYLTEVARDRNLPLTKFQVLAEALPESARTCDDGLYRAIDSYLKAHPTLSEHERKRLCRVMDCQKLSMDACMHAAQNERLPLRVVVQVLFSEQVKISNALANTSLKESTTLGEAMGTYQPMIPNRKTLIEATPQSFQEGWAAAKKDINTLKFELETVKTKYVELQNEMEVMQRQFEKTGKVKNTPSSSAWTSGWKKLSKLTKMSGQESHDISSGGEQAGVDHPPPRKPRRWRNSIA
Described as above. The following applies: both partners purified.

For the molecule “NPH3 (NON-PHOTOTROPIC HYPOCOTYL 3) (from UniProt Q9FMF5) S744A”, the “binding against the reference” value with 14-3-3 Epsilon is listed as “lost”.

B1: GST-14-3-3 Epsilon (natural protein, Arabidopsis, UniProt P48347 1-254, looked up)
chain: MENEREKQVYLAKLSEQTERYDEMVEAMKKVAQLDVELTVEERNLVSVGYKNVIGARRASWRILSSIEQKEESKGNDENVKRLKNYRKRVEDELAKVCNDILSVIDKHLIPSSNAVESTVFFYKMKGDYYRYLAEFSSGAERKEAADQSLEAYKAAVAAAENGLAPTHPVRLGLALNFSVFYYEILNSPESACQLAKQAFDDAIAELDSLNEESYKDSTLIMQLLRDNLTLWTSDLNEEGDERTKGADEPQDEN
notes: Arabidopsis 14-3-3 isoform Epsilon (epsilon group member), expressed from pGEX-4T1 as a translational fusion with GST; source: E. coli BL21(DE3), purified (glutathione agarose)
For the molecule B1, the binding result (in assay [1]; with GFP-NPH3 S746A) was “binds” in each case.

B2: GST-14-3-3 Lambda (natural protein, Arabidopsis, UniProt P48349 1-248, looked up)
chain: MAATLGRDQYVYMAKLAEQAERYEEMVQFMEQLVTGATPAEELTVEERNLLSVAYKNVIGSLRAAWRIVSSIEQKEESRKNDEHVSLVKDYRSKVESELSSVCSGILKLLDSHLIPSAGASESKVFYLKMKGDYHRYMAEFKSGDERKTAAEDTMLAYKAAQDIAAADMAPTHPIRLGLALNFSVFYYEILNSSDKACNMAKQAFEEAIAELDTLGEESYKDSTLIMQLLRDNLTLWTSDMQEQMDEA
notes: Arabidopsis 14-3-3 isoform Lambda (non-epsilon group member), expressed from pGEX-4T1 as a translational fusion with GST; source: E. coli BL21(DE3), purified (glutathione agarose)
Consider B2, for which the binding result in assay [1] is “binds”.

The record behind these values is article PMC8531357, “Regulation of plant phototropic growth by NPH3/RPT2-like substrate phosphorylation and 14-3-3 binding” (Nature Communications, 2021).
